Laboratory results as given in the nanobody polyreactivity screen of Harvey et al. (2022).

Assay: yeast display, Sf9 membrane polyspecificity reagent, FACS + sequencing; frameworks hold sequencing errors
How it was run: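 Synthetic nanobody libraries on Saccharomyces cerevisiae BJ5465 were galactose-induced for 36–48 hours, stained 1 hour at 4 °C with 10% biotinylated, detergent-solubilized Sf9 membrane reagent and enriched on streptavidin microbeads. FACS then separated cells into low and high (top ~1%) gates by anti-HA (expression) and streptavidin (reagent binding) fluorescence. Genes were colony-PCR amplified, MiSeq 2 × 250 sequenced and CDR-length filtered. A clone's polyreactivity label is that of its gate of origin.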

Sequence | polyreactivity (PSR sort gate)
QVQLVESGGGLVQAGGSLRLSCAASGSTFASYAMGWYRQAPGKERELVAAIRWRGGTTYYADSVKGRFTISRDNAKNTVYLQMNSLKPEDTAVYYCNADRYYLYYYWGQGTQVTVSS | low polyreactivity
QVQLVESGGGLVQAGGSLRLSCAASGSTFGIYAMGWYRQAPGKERELVAAISSGGSTNYADSVKGRFTISRDNAKNTVYLQMNSLKPEDTAVYYCAVESVYEYGGYVDSAYDYWGQGTQLTVSS | low polyreactivity
QVQLVESGGVLLQAGASLRLSCAASGSIIRSYAMGWYRQAPGKERELVASISRRGGSTYYADSVKGRFTISRDNPKNSVFLQMNSLNPVDTADYYCGAVTTSKFNFWGQGTQVTVSS | low polyreactivity
QVQLVESGGGLVQAGGSLRLSCAASGRIFAAYAMGWYRQAPGKERELVATITRGGSTYYADSVKGRFTISRDNAKNTVYLQMNSLKQKDTAVYYCAVKRGFTQYKPFNYWGQGTQVTVSS | high polyreactivity
QVQLVESGGGLVQAGGSLRLSCAASGSIFASNAMGWYRQAPGKERELVADISGTTGSTYYADSVKGRFTISRDNAKNTVYLQMNSLKPEDTAVYYCAADLVWVSTSYYYWGQGTLVTVSS | low polyreactivity
QVQLVESGGGLVQARGSLRLSCAASGSTFGRYVMGWYRQAPGKERELVAAISKNAGSTYYADSVKGRFTISRDNAKNTVYLQMTSLKPEDTAVYYCAADWRTKGYDSLGQGTQVTVSS | high polyreactivity
IIQEGGSLRLSCAASGRTFSGYAMGWYRQAPGKERELIADITSGGSTYYADSVKGRFTISRDNAKNTVYLQMNSLKPEDTAVYYCAAERQIRSFWSSRTYEFGYWGQGTQVTVSS | low polyreactivity
QVQLVESGGGLVQAGGSLRLSCAASGSTFARYAMGWYRQAPGKEREFVAAISASGGRTYYADSVKGRFTISRDNAKNTVYLQMNSLKPEDTAVYYCAVRVYAKYFAKYDYWGQGTQVTVSS | high polyreactivity
QVQLVESGGGLVQAGGSLRLSCAASGRTFLYNAMGWYRQAHGKERELVAAIDQSGGSTYYADSVKGRFTISRDNAKNTVYLQMNSLKPEDTAVYYCAAYWEGSWYYKKYYYWGQGTQVTVSS | high polyreactivity
HVQHVESGGGLVQAGGSLRLSCAASGRIFRPNAMGRYRQAPGKERELVAAITSNGGRTYYADSVKGRFTISRDNAKTTVYLQMTSQKPEDTAVYYCNAAPFRSGYGYWGQGTQVNVSS | high polyreactivity
QVQLVESGGGLVQAGGSLRLSCAASGSIFLAYAMGWYRQAPGKERELVAAITAGTGSTYYADSVKGRFTISRDNAKNTVYLQMNSLKPEDTAVYYCAKAVSLFRGPFSSFDYWGQGTQVTVSS | low polyreactivity
QVQLVESGGGLVQAGGSLRLSCAASGSISSLNTMGWYRQAPGKERELVASISRRGGSTYYADSVKGRFTISRDNAKNTVYLQINSLKPEDTAVFYCAARGVGGTVPTRYDYWGQGTQVTVSS | high polyreactivity
QVQLVESGGGLVQAGGSLRLSFAASGFTFTLYAMGLYRQAPGKEREFVAAITARGGSTYYADSVKGRFTISRDNAKNTVYLQMNSLKPEDTAVYYCNKEYGSRRYPYRYNYWGQGTQVTVSS | high polyreactivity
QVQLVESGGGLVQAGGSLRLSCAASGRIFYGYAMGWYRQAPGKERELVAAITSGSRTNYADSVKGRFTISRDNAKNTVYLQMNSLKPEDTAVYDCHSRYGSYLYSLVHNTRYDYWGQGTQVTVSS | low polyreactivity
QVQLVESGGGLVQAGGSLRLSCAASGSIFIPNAMGWYRQAPGKERELVAAISLSDTTTYYADSVKGRFTISRDNAKNTVYLQMNSLKPEDTAVYYCNKLTYGRVWDHHYDYWGQGTQVTVSS | low polyreactivity
QVQLVESGGGLVHAGGSLRLSCAASGSTFNYYAMGWYRQAPGKERELVAAIDWSGGSTYYADSVKGRFTISRDNAKNTVYLQMNSLKPEDTAVYYCAARTYDYSYRSYDYWGQGTQVTVSS | low polyreactivity

Sequence | polyreactivity (PSR sort gate)
QVQLVESGGGLVQAGGSLRLSCAASGRIFGGYAMGWYRQAPGKERELVAAIRDSGRTYYADSVKGRFTISRDNEKNTVYLQMNRLKPEDTAVYYCAADAHSSYSPFRWYDYWGQGSQVTVSS | low polyreactivity
QVQLVESGGGLVQAGGSLRLSCAASGIIFYRNAMGWYRQAPGKERELVAAISSSGGRTYYADSVKGRFTISRDNAKNTVYLQMNSLKPEDTAVYYCAADYQWFWVWYGYWGQGTQVTVSS | high polyreactivity
QVQLVESGGGLVQAGGSLRLSCAASGIIFWTYTMGWYRQAPGKERELVAAISSGGSTTYADSVKGRFTISRDNSMNTVFLQMNWLKPEDTAVYYCAKRRQYQRSYNYWGKGTQVTVSS | low polyreactivity
QVQLVESGGGLVQAGGSLRLSCAASGRTFSQNAMGWYRQAPGKERELVAAISWSGGRTYYADSVKGRFTISRDNAKNTVYLQMNSLKPEDTAVYYCAKSQHRTYYYWGQGTQVTVSS | high polyreactivity
HVQLVESGGGLVQAGGSLRLSCAASGRNFIYNAMGWSSPAPGTDRELVAAINRSGVSTHYADSVKGRFTISRDNAKKTVYLQMNSLKPEDTAVEYCARTVYGARSYDYWGQGTQVTVSS | low polyreactivity
QVQLVESGGGLVQAGGSLRLSCAASGFTSGYYAMGWYRQAPGKESELVAAIDWSDGGTYYADSVKGRFTISRDNAKNTVYLQMNSLKPEDTAVYYCATVRYVQITRDDYWGQGTQVTVSS | low polyreactivity
QVQLVESGGGLVQAGGSLRLSCAASGFTFVNHAMGWYRQAPGKERELVAAISGGRTTNYADSVKGRFTISRDNAKNTVYLQMNSLKPEDTAVYYCAARRYFGLWYFWYDYWGQGTQVTVSS | high polyreactivity
QVQLVESGGGLVQAGGSLRLSCAASGSIFNWYAMGWYRRAPGKERELVAAISQSGTRTFYADSVKGRFTISRDNAKNTVYLQMNSLKPEDTAVYYCNTVKAGYDGYDRDYWGQGTQVTVSS | high polyreactivity
QVQLVESGGGLVQAGGSLRLSCAASGRTFRSYAMGWYRQAPGKERELVAAIRRGGSTNYADSVKGRFTISRDNAKNTVYLQMNSLKPEDTAVYYCNARQTVRGPTDGRIAVWFDYWGQGTQVTVSS | high polyreactivity
QVQLVESGGCLVQAGGSLRLSCAASGSIFDSNAMGWYRQAPGKERELVAAITWSGGRTYYADSVKGRFTISLDNAKNTVYLQMNSLKPEDTAVYYCAARKYTLFWPYDYWGQGTQVTVSS | high polyreactivity
QVQLVESGGGLVQAGGSLRLSCAPSGITFYKYAMGWYRQAPGKERELVATISRRGGTTYYADSVKGRFTISRDNAKNTVYLQMNSLKPEDTAVYYCNADSRTYRYYWSYGYWGQGTQVTVSS | high polyreactivity
QVQLVESGGGLVQAGGSLRLSCAASGLIFRYYAMGWYRQAPGKERELVAAISKSGGRTYYADSVKGRFTISRDNAKNTVYLQMNSLKPEDTAVYYCATGVRGYVGWSSALYYEYDYWGQGTQVTVSS | high polyreactivity
QVQLVESGGGLVQAGGSLRLSCAASGSTFDSNVIGWYRQAPGKERELVAAITWSGGSTYYADSVKGRFTISRDNAKNTVYLQMNSLKPEDTAVYYCAARHYPRYGNRRMYYWGQGTQVTVSS | high polyreactivity
QVQLVETGRGLVQAGGSLRLSCAASGLTFKFNAMGWYRQAPGKEREFVAAISRSGGRTYYAESVKGRFTISRDNAKNTVYFQMNSLKPEDTAVYFCADEEIVYYPVLFEYDYWGQGTQVTASS | high polyreactivity
QVQLVESGGGLVQAGRSHRLSCAASGSIFPVYVMGWYRQAPGKERELVAAISQSSGGTYYADSVKGRFTISRDNATITVYLQMNSLKPEDTAVYYCAARITAIQGQRYYWGQGTQVTVSS | high polyreactivity
